What was measured:
[1] = tested on: T1, recombinant Pro-CE (pro-clotting enzyme, His-Tag at the C-terminus, expressed in expresSF+ insect cells)
T1 sequence: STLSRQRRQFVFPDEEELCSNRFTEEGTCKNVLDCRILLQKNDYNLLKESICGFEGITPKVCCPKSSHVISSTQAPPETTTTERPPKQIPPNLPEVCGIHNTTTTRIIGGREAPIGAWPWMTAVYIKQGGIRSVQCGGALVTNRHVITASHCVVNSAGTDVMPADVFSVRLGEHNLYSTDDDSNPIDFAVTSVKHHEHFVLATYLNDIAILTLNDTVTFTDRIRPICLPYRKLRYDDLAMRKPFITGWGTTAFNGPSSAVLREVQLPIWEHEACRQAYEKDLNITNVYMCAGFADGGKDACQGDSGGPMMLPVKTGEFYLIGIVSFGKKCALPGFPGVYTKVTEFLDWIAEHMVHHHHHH

[2] = tested on: Pro-CE derived from a horseshoe crab hemocyte extract (DS-10AII fraction)
[3] = target: T2, recombinant Pro-CE (pro-clotting enzyme, His-Tag at the C-terminus, expressed in expresSF+ insect cells)
T2 chain: T1 sequence

[4] = target: T3, recombinant factor B (His-Tag at the C-terminus; culture supernatant, MOI = 0.1, 96 h)
T3 chain: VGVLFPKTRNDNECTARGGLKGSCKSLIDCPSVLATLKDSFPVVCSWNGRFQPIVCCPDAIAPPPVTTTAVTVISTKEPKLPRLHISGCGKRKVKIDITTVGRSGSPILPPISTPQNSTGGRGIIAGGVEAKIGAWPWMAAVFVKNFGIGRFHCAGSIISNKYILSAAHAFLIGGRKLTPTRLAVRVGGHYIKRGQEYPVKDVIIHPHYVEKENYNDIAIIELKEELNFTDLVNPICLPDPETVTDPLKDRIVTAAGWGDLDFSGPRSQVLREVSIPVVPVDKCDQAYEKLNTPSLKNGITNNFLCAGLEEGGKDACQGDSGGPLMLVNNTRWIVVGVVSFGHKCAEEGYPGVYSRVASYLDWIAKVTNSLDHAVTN

In the case of “Factor G derived from a horseshoe crab hemocyte extract (DS-3GII fraction)”, the Reactivity, Average; CSBG 0 ng/mL (A 405 to 492 nm) [1] is reported as 0.05, the Reactivity, Average; CSBG 1 ng/mL (A 405 to 492 nm) [1] is reported as 0.484 and the Reactivity, Average; CSBG 10 ng/mL (A 405 to 492 nm) [1] is reported as 0.987. For the same molecule, the Reactivity, endpoint assay, Boc-Leu-Gly-Arg-pNA; CSBG 0 ng/mL, first reading (A 405 to 492 nm) [1] was 0.051, the Reactivity, endpoint assay, Boc-Leu-Gly-Arg-pNA; CSBG 0 ng/mL, second reading (A 405 to 492 nm) [1] was 0.049 and the Reactivity, endpoint assay, Boc-Leu-Gly-Arg-pNA; CSBG 1 ng/mL, first reading (A 405 to 492 nm) [1] was 0.48. For the same molecule, the Reactivity, endpoint assay, Boc-Leu-Gly-Arg-pNA; CSBG 1 ng/mL, second reading (A 405 to 492 nm) [1] was 0.487, the Reactivity, endpoint assay, Boc-Leu-Gly-Arg-pNA; CSBG 10 ng/mL, first reading (A 405 to 492 nm) [1] was 0.988 and the Reactivity, endpoint assay, Boc-Leu-Gly-Arg-pNA; CSBG 10 ng/mL, second reading (A 405 to 492 nm) [1] was 0.986. For the same molecule, the Reactivity, ΔA; CSBG 1 ng/mL (A 405 to 492 nm) [1] was 0.434, the Reactivity, ΔA; CSBG 10 ng/mL (A 405 to 492 nm) [1] was 0.937 and the “enzymatic activity with DS-3GII fraction and BG” value [1] was “the recombinant Pro-CE exhibited an enzymatic activity almost equivalent to that of Pro-CE derived from a horseshoe crab hemocyte extract”. It also gave a Reactivity, Average; CSBG 0 ng/mL (A 405 to 492 nm) [2] of 0.058, a Reactivity, Average; CSBG 1 ng/mL (A 405 to 492 nm) [2] of 0.437 and a Reactivity, Average; CSBG 10 ng/mL (A 405 to 492 nm) [2] of 0.986. The Reactivity, endpoint assay, Boc-Leu-Gly-Arg-pNA; CSBG 0 ng/mL, first reading (A 405 to 492 nm) [2] was 0.056, the Reactivity, endpoint assay, Boc-Leu-Gly-Arg-pNA; CSBG 0 ng/mL, second reading (A 405 to 492 nm) [2] was 0.06 and the Reactivity, endpoint assay, Boc-Leu-Gly-Arg-pNA; CSBG 1 ng/mL, first reading (A 405 to 492 nm) [2] was 0.44. For the same molecule, the Reactivity, endpoint assay, Boc-Leu-Gly-Arg-pNA; CSBG 1 ng/mL, second reading (A 405 to 492 nm) [2] was 0.434, the Reactivity, endpoint assay, Boc-Leu-Gly-Arg-pNA; CSBG 10 ng/mL, first reading (A 405 to 492 nm) [2] was 0.969 and the Reactivity, endpoint assay, Boc-Leu-Gly-Arg-pNA; CSBG 10 ng/mL, second reading (A 405 to 492 nm) [2] was 1. The Reactivity, ΔA; CSBG 1 ng/mL (A 405 to 492 nm) [2] was 0.379 and the Reactivity, ΔA; CSBG 10 ng/mL (A 405 to 492 nm) [2] was 0.928.

“recombinant factor G (culture supernatant; alpha-subunit:beta-subunit = 2:1)” showed a Reactivity, Average; CSBG 0 ng/mL [1] of 0.078, a Reactivity, Average; CSBG 1 ng/mL [1] of 0.139 and a Reactivity, Average; CSBG 10 ng/mL [1] of 0.532. For the same molecule, the Reactivity, endpoint assay, Boc-Leu-Gly-Arg-pNA; CSBG 0 ng/mL, first reading [1] was 0.079, the Reactivity, endpoint assay, Boc-Leu-Gly-Arg-pNA; CSBG 0 ng/mL, second reading [1] was 0.076 and the Reactivity, endpoint assay, Boc-Leu-Gly-Arg-pNA; CSBG 1 ng/mL, first reading [1] was 0.14. For the same molecule, the Reactivity, endpoint assay, Boc-Leu-Gly-Arg-pNA; CSBG 1 ng/mL, second reading [1] was 0.138, the Reactivity, endpoint assay, Boc-Leu-Gly-Arg-pNA; CSBG 10 ng/mL, first reading [1] was 0.543 and the Reactivity, endpoint assay, Boc-Leu-Gly-Arg-pNA; CSBG 10 ng/mL, second reading [1] was 0.52. The Reactivity, ΔA; CSBG 1 ng/mL [1] was 0.061, the Reactivity, ΔA; CSBG 10 ng/mL [1] was 0.454 and the “hydrolysis of Boc-Leu-Gly-Arg-pNA in the complete reconstitution system with BG” value [1] was “the same enzymatic activity as that of native factor LAL was found to be expressed”.

B1: recombinant factor B (His-Tag at the C-terminus; culture supernatant, MOI = 0.1, 96 h) (protein)
chain: T3 chain
B1 showed a Reactivity, Av.; sample (A) PCE + FB + FC (factor C also present), Et 0 ng/mL (A405 to 492 nm) [3] of 0.023, a Reactivity, Av.; sample (A) PCE + FB + FC (factor C also present), Et 100 ng/mL (A405 to 492 nm) [3] of 0.649 and a Reactivity, Av.; sample (B) PCE + FB, Et 0 ng/mL (A405 to 492 nm) [3] of 0.023. It also gave a Reactivity, Av.; sample (B) PCE + FB, Et 100 ng/mL (A405 to 492 nm) [3] of 0.023, a Reactivity; sample (A) PCE + FB + FC (factor C also present), Et 0 ng/mL, first reading (A405 to 492 nm) [3] of 0.024 and a Reactivity; sample (A) PCE + FB + FC (factor C also present), Et 0 ng/mL, second reading (A405 to 492 nm) [3] of 0.022. It also gave a Reactivity; sample (A) PCE + FB + FC (factor C also present), Et 100 ng/mL, first reading (A405 to 492 nm) [3] of 0.652, a Reactivity; sample (A) PCE + FB + FC (factor C also present), Et 100 ng/mL, second reading (A405 to 492 nm) [3] of 0.645 and a Reactivity; sample (B) PCE + FB, Et 0 ng/mL, first reading (A405 to 492 nm) [3] of 0.023. The Reactivity; sample (B) PCE + FB, Et 0 ng/mL, second reading (A405 to 492 nm) [3] was 0.022, the Reactivity; sample (B) PCE + FB, Et 100 ng/mL, first reading (A405 to 492 nm) [3] was 0.022 and the Reactivity; sample (B) PCE + FB, Et 100 ng/mL, second reading (A405 to 492 nm) [3] was 0.023. For the same molecule, the “hydrolysis of Boc-Leu-Gly-Arg-pNA in the complete reconstitution system with Et (factor C also present)” value [3] was “cascade reaction of Et proceeds in a concentration-dependent manner through employment of recombinant factors C and B and recombinant Pro-CE in combination” and the “hydrolysis of Boc-Leu-Gly-Arg-pNA in the presence of Et at high concentration, without factor C” value [3] was “in the samples containing recombinant Pro-CE and/or recombinant factor B, activation attributed to high concentration Et was not observed”.

B2: recombinant factor C (derived from Tachypleus rotundicauda), commercial element of PyroGene (product of Cambrex) (protein)
chain: KGVDLGLCDETRFECKCGDPGYVFNIPVKQCTYFYRWRPYCKPCDDLEAKDICPKYKRCQECKAGLDSCVTCPPNKYGTWCSGECQCKNGGICDQRTGACACRDRYEGVHCEILKGCPLLPSDSQVQEVRNPPDNPQTIDYSCSPGFKLKGMARISCLPNGQWSNFPPKCIRECAMVSSPEHGKVNALSGDMIEGATLRFSCDSPYYLIGQETLTCQGNGQWNGQIPQCKNLVFCPDLDPVNHAEHKVKIGVEQKYGQFPQGTEVTYTCSGNYFLMGFDTLKCNPDGSWSGSQPSCVKVADREVDCDSKAVDFLDDVGEPVRIHCPAGCSLTAGTVWGTAIYHELSSVCRAAIHAGKLPNSGGAVHVVNNGPYSDFLGSDLNGIKSEELKSLARSFRFDYVRSSTAGKSGCPDGWFEVDENCVYVTSKQRAWERAQGVCTNMAARLAVLDKDVIPNSLTETLRGKGLTTTWIGLHRLDAEKPFIWELMDRSNVVLNDNLTFWASGEPGNETNCVYMDIQDQLQSVWKTKSCFQPSSFACMMDLSDRNKAKCDDPGSLENGHATLHGQSIDGFYAGSSIRYSCEVLHYLSGTETVTCTTNGTWSAPKPRCIKVITCQNPPVPSYGSVEIKPPSRTNSISRVGSPFLRLPRLPLPLARAAKPPPKPRSSQPSTVDLASKVKLPEGHYRVGSRAIYTCESRYYELLGSQGRRCDSNGNWSGRPASCIPVCGRSDSPRSPFIWNGNSTEIGQWPWQAGISRWLADHNMWFLQCGGSLLNEKWIVTAAHCVTYSATAEIIDPNQFKMYLGKYYRDDSRDDDYVQVREALEIHVNPNYDPGNLNFDIALIQLKTPVTLTTRVQPICLPTDITTREHLKEGTLAVVTGWGLNENNTYSETIQQAVLPVVAASTCEEGYKEADLPLTVTENMFCAGYKKGRYDACSGDSGGPLVFADDSRTERRWVLEGIVSWGSPSGCGKANQYGGFTKVNVFLSWIRQFI
With B2 the Reactivity, Av.; sample (C) PCE + FC, Et 0 ng/mL (A405 to 492 nm) [3] was 0.02, the Reactivity, Av.; sample (C) PCE + FC, Et 100 ng/mL (A405 to 492 nm) [3] was 0.03 and the Reactivity; sample (C) PCE + FC, Et 0 ng/mL, first reading (A405 to 492 nm) [3] was 0.02. The Reactivity; sample (C) PCE + FC, Et 0 ng/mL, second reading (A405 to 492 nm) [3] was 0.02, the Reactivity; sample (C) PCE + FC, Et 100 ng/mL, first reading (A405 to 492 nm) [3] was 0.029 and the Reactivity; sample (C) PCE + FC, Et 100 ng/mL, second reading (A405 to 492 nm) [3] was 0.03. It also gave a Reactivity, Av.; sample (D) FB + FC, Et 0 ng/mL (A405 to 492 nm) [4] of 0.025, a Reactivity, Av.; sample (D) FB + FC, Et 100 ng/mL (A405 to 492 nm) [4] of 0.033 and a Reactivity; sample (D) FB + FC, Et 0 ng/mL, first reading (A405 to 492 nm) [4] of 0.024. For the same molecule, the Reactivity; sample (D) FB + FC, Et 0 ng/mL, second reading (A405 to 492 nm) [4] was 0.025, the Reactivity; sample (D) FB + FC, Et 100 ng/mL, first reading (A405 to 492 nm) [4] was 0.032 and the Reactivity; sample (D) FB + FC, Et 100 ng/mL, second reading (A405 to 492 nm) [4] was 0.034. For the same molecule, the “hydrolysis of Boc-Leu-Gly-Arg-pNA in the complete reconstitution system with Et (Pro-CE also present)” value [4] was “cascade reaction of Et proceeds in a concentration-dependent manner through employment of recombinant factors C and B and recombinant Pro-CE in combination”.

— patent US20090208995
